Columns and labels:
[1] = molecular target: human desmin (assembled into filaments in vitro) (human) (UniProt P17661); test: low-speed sedimentation assay; desmin alone assembled at 37°C; 2,500 g, 10 min, 20°C; pellets only filaments associated with each other (filament-filament interactions); SDS-PAGE densitometry
[2] = molecular target: human desmin (assembled into filaments in vitro) (human) (UniProt P17661); test: low-speed sedimentation assay; desmin alone assembled at 44°C; 2,500 g, 10 min, 20°C; pellets only filaments associated with each other (filament-filament interactions); SDS-PAGE densitometry
[3] = molecular target: human desmin (assembled into filaments in vitro) (human) (UniProt P17661); test: low-speed sedimentation assay; desmin alone assembled at 22°C; 2,500 g, 10 min, 20°C; pellets only filaments associated with each other (filament-filament interactions); SDS-PAGE densitometry

## human desmin (assembled into filaments in vitro) (from UniProt P17661 1-470) (natural protein)
[1]
  % of desmin in the low-speed pellet (filament-filament interactions): 45%
[2]
  % of desmin in the low-speed pellet (filament-filament interactions): 61%
[3]
  % of desmin in the low-speed pellet (filament-filament interactions): 24%

Reference: publication PMC3212511
